Experimental data as given in patent US20240376149A1, “Novel Modulators of GABABR1a” (VIB VZW, priority 2021, published 2024).
Where two headings read alike, the source gives them in different places. *1 amine or outer side, *2 acyl side, *3 side chain or, on linkers, in order; H or OH if unused. Where a SMILES comes first, the peptide text is derived from it. Where no end group is shown, it is not given here. [ ]: non-standard residue; d: D form. NEtW = N-ethyl-tryptophan (F149), CCN([C@@H](Cc1c[nH]c2ccccc12)C(=O)[*:2])[*:1]; X2 = O=C([C@H](CC1CCC(F)(F)CC1)N[*:1])[*:2]; hCha = N[C@@H](CCC1CCCCC1)C(=O)O; Cha = N[C@@H](CC1CCCCC1)C(=O)O; F182 = not defined here; F72 = not defined here

How the values were obtained:
[1] = molecular target: T1, HEK293 cells expressing the ectodomain of GABABR1a comprising SD1 (Homo sapiens, UniProt Q9UBS5); assay: Flow-cytometry cell-based binding assay, competition with biotinylated 9-mer; settings: peptide at 100 μM, inhibition of biotin-9mer (10 μM) binding
T1 construct: HEK293 were transfected with plasmids encoding the ectodomain of GABABR1a (as in Rice et al., 2019); expressed in transfected cells; host or cells: HEK293
T1 sequence (Q9UBS5 20-591 limits assumed): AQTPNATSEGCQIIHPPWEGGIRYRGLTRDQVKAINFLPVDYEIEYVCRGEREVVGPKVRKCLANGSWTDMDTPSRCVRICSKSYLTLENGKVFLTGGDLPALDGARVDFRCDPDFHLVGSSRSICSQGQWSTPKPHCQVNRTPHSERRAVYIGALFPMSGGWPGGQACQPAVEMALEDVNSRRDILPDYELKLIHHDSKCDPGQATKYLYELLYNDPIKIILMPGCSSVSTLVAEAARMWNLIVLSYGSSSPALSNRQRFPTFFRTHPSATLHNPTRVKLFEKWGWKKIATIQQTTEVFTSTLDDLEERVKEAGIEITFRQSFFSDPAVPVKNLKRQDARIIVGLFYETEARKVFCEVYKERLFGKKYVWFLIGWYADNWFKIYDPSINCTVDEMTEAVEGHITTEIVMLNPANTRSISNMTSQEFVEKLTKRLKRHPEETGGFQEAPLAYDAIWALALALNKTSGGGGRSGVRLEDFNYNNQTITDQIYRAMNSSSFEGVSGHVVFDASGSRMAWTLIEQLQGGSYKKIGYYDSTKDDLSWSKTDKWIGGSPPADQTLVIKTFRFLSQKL
Experimental: HEK cells expressing GABABR1a-SD1 were incubated with peptides of the application and the binding of 9-mer in the presence of the peptides was measured. The 9-mer peptide is biotinylated and detected with a commercial antibody.
(§1) Next, the top ranking compounds were tested in a cell-based binding assay. HEK293 cells were transformed to express the ectodomain of GABABR1a comprising SD1. In this cell-based assay, SD1 is expressed on the GABABR1a ectodomain and can adopt a more physiological conformation, compared to the purified SD1 protein used in the primary assay (FP assay).
(§2) HEK293 were transfected with plasmids encoding the ectodomain of GABABR1a (as in Rice et al., 2019), carrying a His-tag at the N-terminal. After 24 h of expression, cells were harvested and adjusted to a concentration of 1×10^6 cells/mL in ice-cold 2% FBS/PBS. Incubation with each peptide (in dose-response curve) was carried out at 4° C. for 1 h, followed by incubation with the biotion-9mer (10 μM) peptide during 30 min. Detection antibodies recognizing either His protein or biotin were added for a period of 30 min. The assay plate containing the cells was loaded into the Attune NxT Cytometer, parameters were adjusted accordingly with the cell type and signal intensity. In each experiment, positive and negative control were added to the plate.

[2] = molecular target: T2, GABABR1a-SD1 (SD1-FITC-9mer complex) (Homo sapiens, UniProt Q9UBS5); assay: Fluorescence polarization (FP) competition assay with FITC-9mer; format: binding; settings: peptide at 50 μM; inhibition of FITC-9mer binding to SD1
T2 construct: The synthetic gene encoding for residues 26-96 of the Sushi1 protein was cloned into a pFloat-SUMO vector; His-SUMO (with 3C protease site) (N, cleaved yes); made in house; host or cells: E. coli BL21(DE3)
T2 sequence (Q9UBS5 26-96, one chain of several): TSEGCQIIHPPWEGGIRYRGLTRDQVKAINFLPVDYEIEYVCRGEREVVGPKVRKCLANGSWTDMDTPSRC
Experimental: Intrigued by the surprising results of the 5-mer, it was decided to set up a medium- to high-throughput screen to optimize the 5-mer sequence. Several assays were tested to find a reproducible, robust and cost-effective assay that is also suitable for high-throughput screening. A fluorescence polarization (FP) assay was selected. FP measurements are well-known for receptor binding assays. The assay is based on the rotational movement of fluorescently labelled molecules in solution. […] The FP assay was optimized using the FITC labelled sAPP 9-mer (FIG. 1).
(§3) To screen for GABABR1a binders using unlabelled test compounds, the assay was turned into a competition assay using FITC-9mer. […] To validate this inhibitor assay, the IC50 values were determined of the 17-mer, 9-mer, 5-mer as well as those from 3 negative controls: 10-mer, scrambled 17-mer and a scrambled 9-mer (FIG. 2).
(§4) To determine if the peptides of this application were able to disrupt the SD1-9-mer complex, each peptide (in single point or dose-response curve) tested was incubate with SD1 protein for 1 h at RT. After this initially incubation, FITC-9mer was added to the previous mix and incubated during 2 h at RT. The signal intensity was measure in an appropriate plate reader using the following settings: Number of flashes per well: 200; Excitation: F482-16; Dichroic filter: FLP 504; Emission A F530-40; Gain A: 738, Gain B: 736. The assay was conducted in a 384-well plate.

[3] = molecular target: T3, Sushi domain 1 of the human GABA B1a receptor (human, UniProt Q9UBS5 26-96); assay: FP competition vs FITC-9mer on purified SD1
T3 construct: Purified recombinant protein from E. coli; also called SD1; GABABR1a-SD1
T3 sequence (Q9UBS5 26-96 limits assumed): as the sequence (Q9UBS5 26-96, one chain of several) above
Experimental: as §3
Based on structural information of DIYWS-SD1 and DIWWS-SD1 co-crystals, 48 peptides containing non-natural residues were manually designed and checked for binding to the GABABR1a SD1 in the FP assay at a concentration of 50 μM. These non-natural peptides were categorized based on the IC50 values obtained in the FP assay (Table 3). […] The listed non-natural 5-mers all share D-aspartate was on position 1 (residue position 4 of the 9-mer), L-isoleucine on position 2 (residue position 5 of the 9-mer), L-tryptophane on position 4 (residue position 7 of the 9-mer) and L-serine on position 5 (residue position 8 of the 9-mer), while position 3 is selected from the list consisting of L-tyrosine, isoethylmethyl-benzene, 6-chloro-3-methyl-1H-indole, methylcyclohexane, ethylcyclohexane, 2-naphthalene, ethylbenzene, 1,1-difluoro-4-cyclohexyl, 4-methyl-1-methoxy-2-methylbenzene, 1-chloro-4-methylbenzene, 4-methylphenyl-methanol, 3-methylbenzoic acid and 4-methylaniline.

[4] = molecular target: T3, Sushi domain 1 of the human GABA B1a …; assay: ITC, peptide titrated into purified SD1
Experimental: (§5) The Sushi-1 protein was dialysed overnight to PBS buffer and diluted to 30 μM in the same buffer. The peptides were resuspended in PBS at a stock concentration of 3 mM and diluted further in the same buffer to 300 μM. ITC experiments were performed on a Microcal ITC200 device. Titrations comprised 26×1.5 μL injections of peptide into protein, with 90 s intervals. An initial injection of ligand (0.5 μL) was made and discarded during data analysis. The data were fitted to a single binding site model using the Microcal LLC ITC₂₀₀. Original software provided by the manufacturer.

[5] = molecular target: T4, Ectodomain of GABABR1a comprising SD1, expressed on HEK293 cells with N-terminal His-tag (human, UniProt Q9UBS5 20-591, limits assumed); assay: flow cytometry competition vs biotin-9mer on HEK293 cells expressing GABABR1a ectodomain
T4 construct: extracellular domain; also called GABABR1a-SD1 (on cells); GABABR1a ectodomain
T4 sequence (Q9UBS5 20-591 limits assumed): as the sequence (Q9UBS5 20-591 limits assumed) above
Experimental: as §1, with “assay). Before testing the active compounds, it was confirmed that 9-mer (tagged with Biotin) binds specifically to cells expressing GABABR1a-SD1 and not GABABR1b.” for “assay).”
as §2

[6] = molecular target: T3, Sushi domain 1 of the human GABA B1a …; assay: ITC, peptide titrated into purified SD1; remark: listed apart in the source
Experimental: First, we wondered whether the wild-type sAPP 9-mer peptide would be the optimal sequence in terms of SD1 binding or whether sequence variants of the sAPP 9-mer would have improved binding to the GABABR1a-SD1. Therefore a panel of single and double sAPP 9-mer mutants was generated. An alanine scan was performed for the residues on position 1 to position 7. Based on an ITC assay, these single mutant peptides bound the SD1 with the same or slightly higher Kd (Table 1). Also the double mutants VIB_P04, VIB_P05 and VIB_P19 bound with a similar Kd to SD1 compared to the wild-type 9-mer. We have also tested the effect of the D-isomer of the amino residues on position 1 to 4, in single or multiple combinations. None of the mutations had strong effects on the measured Kd (Table 1). We therefore conclude that the wild-type sAPP 9-mer is already optimized but that many variants bind as good to SD1 and thus will modulate GABABR1a in a similar manner.
as §5

[7] = molecular target: T3, Sushi domain 1 of the human GABA B1a …; assay: FP competition vs FITC-9mer on purified SD1; remark: listed apart in the source
Experimental: Next, 35 variants of the DVWWG 5-mer peptide containing natural residues were tested in the above described FP assay. The peptides were tested at a concentration of 50 μM.
as §4

Molecule: CC[C@H](C)[C@H](NC(=O)[C@H](N)CC(=O)O)C(=O)N[C@@H](CC1CCCCC1)C(=O)N[C@@H](Cc1c[nH]c2ccccc12)C(=O)N[C@@H](CO)C(=O)O [VIB-0068905] (H-[dD]I[Cha]WS-OH; N-terminus and C-terminus assumed)
- inhibition at 100 µM [1]: 68.3%
- inhibition at 50 µM [2]: 94.8%

Molecule: CC[C@H](C)[C@H](NC(=O)[C@H](N)CC(=O)O)C(=O)N[C@@H](CC1CCC(F)(F)CC1)C(=O)N[C@@H](Cc1c[nH]c2ccccc12)C(=O)N[C@@H](CO)C(=O)O [VIB-0068907] (H-[dD]I[X2]WS-OH; N-terminus and C-terminus assumed)
- inhibition at 100 µM [1]: 47.2%
- inhibition at 50 µM [2]: 86.2%

Molecule: CC[C@H](C)[C@H](NC(=O)[C@H](N)CC(=O)O)C(=O)N[C@@H](CCC1CCCCC1)C(=O)N[C@@H](Cc1c[nH]c2ccccc12)C(=O)N[C@@H](CO)C(=O)O [VIB-0068903] (H-[dD]I[hCha]WS-OH; N-terminus and C-terminus assumed)
- inhibition at 100 µM [1]: 76%
- inhibition at 50 µM [2]: 93.9%

Molecule: CC[C@H](C)[C@H](NC(=O)[C@H](N)CC(=O)O)C(=O)N[C@@H](CCc1ccccc1)C(=O)N[C@@H](Cc1c[nH]c2ccccc12)C(=O)N[C@@H](CO)C(=O)O [VIB-0068910]
- inhibition at 100 µM [1]: 54.2%
- inhibition at 50 µM [2]: 88.6%

B1: VIB-0068911 (peptide)
peptide: [dD]I[F72]WS
modifications: not fully specified; reading uncertain
notes: Peptidomimetic 5-mer; X marks the non-natural residue
- % inhibition 50 µM [3]: 98.1%
- IC50 [3]: 6.54 µM
- Kd [4]: 0.54 µM
- % inhibition 100 µM [5]: 90%
- IC50 [5]: 38 µM

B2: VIB-0068894 (peptide)
peptide: DIXWS
modifications: D-aspartic acid at position 1; position 3 (X) is the non-natural residue F126 = 6-chloro-3-methyl-1H-indole
notes: as for B1
- % inhibition 50 µM [3]: 96.8%
- IC50 [3]: 7.12 µM
- Kd [4]: 0.34 µM
- % inhibition 100 µM [5]: 84.2%
- IC50 [5]: 28.7 µM

B3: VIB-0068905 (peptide)
peptide: DIXWS
modifications: D-aspartic acid at position 1; position 3 (X) is the non-natural residue F15 = methylcyclohexane
notes: as for B1
- % inhibition 50 µM [3]: 94.8%
- IC50 [3]: 8.11 µM
- Kd [4]: 0.25 µM
- % inhibition 100 µM [5]: 68.3%
- IC50 [5]: 78.8 µM

Molecule: DD[dS]DVWWGG (Printed as DD{D-SER}DVWWGG) [VIB_P10]
- Kd [6]: 8.47 µM

B4: VIB-0068903 (peptide)
peptide: DIXWS
modifications: D-aspartic acid at position 1; position 3 (X) is the non-natural residue F141 = ethylcyclohexane
notes: as for B1
- % inhibition 50 µM [3]: 93.9%
- IC50 [3]: 8.22 µM
- Kd [4]: 0.93 µM
- % inhibition 100 µM [5]: 76%
- IC50 [5]: 154 µM

B5: VIB-0068895 (peptide)
peptide: DIXWS
modifications: not fully specified; D-aspartic acid at position 1; position 3 (X) is the non-natural residue F195 = 2-naphtalene
notes: as for B1
- % inhibition 50 µM [3]: 96.3%
- IC50 [3]: 11.1 µM
- Kd [4]: 1.39 µM
- % inhibition 100 µM [5]: 77%
- IC50 [5]: 43.3 µM

Molecule: DDS[dD]VWWGG (Printed as DDS{D-ASP}VWWGG) [VIB_P11]
- Kd [6]: 6.21 µM

B6: VIB-0068910 (peptide)
peptide: DIXWS
modifications: D-aspartic acid at position 1; position 3 (X) is the non-natural residue F70 = ethylbenzene
notes: as for B1
- % inhibition 50 µM [3]: 88.6%
- IC50 [3]: 11.9 µM
- Kd [4]: 2.9 µM
- % inhibition 100 µM [5]: 54.2%

B7: VIB-0068907 (peptide)
peptide: [dD]I[F182]WS
modifications: not fully specified; reading uncertain
notes: as for B1
- % inhibition 50 µM [3]: 86.2%
- IC50 [3]: 12.6 µM
- Kd [4]: 2.47 µM
- % inhibition 100 µM [5]: 47.2%
- IC50 [5]: 49.2 µM

B8: VIB_P33 (peptide)
peptide: DVWWG
notes: also called DVWWG 5-mer; wild-type 5-mer
- % inhibition 50 µM [7]: 66%
- Kd [6]: 9.09 µM
- Kd [4]: 9.09 µM

B9: VIB-0068904 (peptide)
peptide: [dD]I[NEtW]WS
notes: Peptidomimetic 5-mer; position 3 is written W for N-ethyl-tryptophan
- % inhibition 50 µM [3]: 26.7%
- Kd [4]: 1.02 µM

Molecule: DIWWS (also called VIB_34; DIWWS) [VIB_P34]
- % inhibition 50 µM [7]: 81.9%
- Kd [4]: 1.02 µM

Molecule: DIHWG [VIB_P36]
- % inhibition 50 µM [7]: 25.5%
- Kd [4]: 18.4 µM

Molecule: DDSDVWW [VIB_P06]
- Kd [6]: 25.8 µM

Molecule: DASDVWWGG [VIB_P01]
- Kd [6]: 12.2 µM

Molecule: DDADVWWGG [VIB_P02]
- Kd [6]: 3.68 µM

Molecule: DDSAVWWGG [VIB_P03]
- Kd [6]: 10 µM

Molecule: DASAVWWGG [VIB_P04]
- Kd [6]: 5.85 µM

Molecule: ADSDVWWGG [VIB_P12]
- Kd [6]: 7.58 µM

Molecule: AASDVWWGG [VIB_P19]
- Kd [6]: 18.1 µM

Molecule: [dD]DSDVWWGG [VIB_P08]
- Kd [6]: 6.45 µM
